Test [1] deals with human MMP-2 (gelatinase A) (human) (UniProt P08253). The test can be described thus: enzyme inhibition assay (quenched fluorescent peptide substrate); 60/60/250/500 nM MMP-1/-2/-7/-14cd incubated with 0.98-1000 nM (N-)TIMPs for 30 min at room temperature, then 1 uM M-2350 substrate; KI from the equation for slow tight-binding inhibitors.
Test [2] addresses human MMP-7 (matrilysin) (human) (UniProt P09237). Described as above.
Test [3] deals with human MMP-1 (collagenase 1) (human) (UniProt P03956). Described as above.
Chain of UniProt P03956 (P03956 100-469): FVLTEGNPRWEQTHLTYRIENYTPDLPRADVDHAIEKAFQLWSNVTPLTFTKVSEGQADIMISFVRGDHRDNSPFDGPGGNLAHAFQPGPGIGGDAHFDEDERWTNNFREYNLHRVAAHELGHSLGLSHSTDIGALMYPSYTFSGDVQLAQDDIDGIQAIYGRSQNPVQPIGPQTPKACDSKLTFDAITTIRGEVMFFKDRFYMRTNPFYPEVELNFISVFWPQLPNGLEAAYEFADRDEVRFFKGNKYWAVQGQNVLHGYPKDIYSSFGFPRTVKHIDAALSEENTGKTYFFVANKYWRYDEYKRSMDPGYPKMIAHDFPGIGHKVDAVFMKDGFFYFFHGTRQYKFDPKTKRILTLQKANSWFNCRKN
The target in test [4] is catalytic domain of human MMP-14 (cdMMP-14) (human) (UniProt P50281). The description is as above.
In test [5] the target is human MMP-2 (gelatinase A) (human) (UniProt P08253).
For test [6], the target named is human MMP-7 (matrilysin) (human) (UniProt P09237).
Test [7] concerns the target human MMP-1 (collagenase 1) (human) (UniProt P03956).
The target of test [8] is catalytic domain of human MMP-14 (cdMMP-14) (human) (UniProt P50281).

Chain of UniProt P08253 (P08253 110-660): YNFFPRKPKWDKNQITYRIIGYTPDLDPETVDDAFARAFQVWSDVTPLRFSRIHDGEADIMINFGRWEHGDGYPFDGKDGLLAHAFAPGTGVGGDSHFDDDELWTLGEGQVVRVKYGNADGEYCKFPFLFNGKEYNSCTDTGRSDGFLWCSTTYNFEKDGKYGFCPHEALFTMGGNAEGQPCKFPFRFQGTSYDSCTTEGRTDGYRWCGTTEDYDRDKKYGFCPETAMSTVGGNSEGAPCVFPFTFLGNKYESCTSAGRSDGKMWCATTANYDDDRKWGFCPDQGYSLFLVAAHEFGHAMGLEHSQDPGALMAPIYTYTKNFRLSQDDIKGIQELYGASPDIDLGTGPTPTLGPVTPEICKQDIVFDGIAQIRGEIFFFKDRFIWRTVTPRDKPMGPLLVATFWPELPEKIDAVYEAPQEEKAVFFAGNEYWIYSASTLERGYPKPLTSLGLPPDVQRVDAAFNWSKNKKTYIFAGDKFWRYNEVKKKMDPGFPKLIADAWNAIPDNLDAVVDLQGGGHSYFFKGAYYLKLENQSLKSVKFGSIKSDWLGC
Chain of UniProt P09237 (P09237 95-267): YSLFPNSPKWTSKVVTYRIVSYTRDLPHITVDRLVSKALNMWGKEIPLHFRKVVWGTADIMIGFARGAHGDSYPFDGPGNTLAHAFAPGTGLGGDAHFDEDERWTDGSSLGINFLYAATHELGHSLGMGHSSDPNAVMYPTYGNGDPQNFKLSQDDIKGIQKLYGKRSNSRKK

In general, Ki refers to a measure of affinity in units of concentration, obtained from inhibition or displacement. High values mean lower affinity, low ones higher affinity. With “N-terminal domain of human TIMP-1 (N-TIMP-1) (domain or fragment)”, the inhibition constant Ki in test [1] stood at 11 nM; in test [2] it was 4.62 nM; in test [3], 7.21 nM.
Turning to “N-terminal domain of human TIMP-2 (N-TIMP-2) (domain or fragment)”, the inhibition constant (Ki) in test [1] came out at 0.8 nM; in test [2], 2.86 nM; in test [3], 0.65 nM; in test [4], 3.96 nM. The IC50 of inhibition of MMP-2 cleavage of a quenched fluorescent peptide substrate in test [5] worked out at 6 nM. The substance also had an IC50 of inhibition of MMP-7 cleavage of a quenched fluorescent peptide substrate in test [6] of 38 nM. The substance further returned an IC50 of inhibition of MMP-1 cleavage of a quenched fluorescent peptide substrate in test [7] of 3 nM. For the same substance, the IC50 of inhibition of cdMMP-14 cleavage of a quenched fluorescent peptide substrate in test [8] came to 72 nM.

The record behind these values is publication PMC5410052.
